Consider four sequences from the supplement of paper PMC5998384.

Data set [1] concerns HeLa Kyoto. The data set is described as follows: thermal stability score vs G1/S (z-score of summed log2 fold changes over temperatures); higher = more thermally stable than in G1/S.
In data set [2] the test system is HeLa Kyoto. The data set is described as follows: solubility in G1/S (NP-40 vs SDS abundance) (log2 ratio); higher = more soluble. Particulars: cell cycle stage: G1/S.
The subject of data set [3] is HeLa Kyoto. In words: melting temperature (median over replicates), in situ; higher = more thermally stable.
Data set [4] relates to HeLa Kyoto. The data set is described as follows: solubility change mitosis vs G1/S (difference of NP-40 vs SDS log2 ratios) (log2 ratio difference); higher = more soluble in mitosis.
The mark [5] stands for this setting: cell cycle stage: early G1 (4.5 h after nocodazole release).
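Wherever melting temperature (median over replicates), in situ is given: HeLa Kyoto cells synchronized by double thymidine or nocodazole block, proteins quantified by TMT10plex mass spectrometry, three independent biological replicates.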
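Wherever solubility change mitosis vs G1/S (difference of NP-40 vs SDS log2 ratios) is given: synchronized HeLa Kyoto cells (double thymidine block for G1/S, nocodazole release for mitosis), protein amounts in NP-40 versus SDS lysates quantified by mass spectrometry, three biological replicates.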
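Wherever solubility in G1/S (NP-40 vs SDS abundance) is given: HeLa Kyoto cells arrested at G1/S by double thymidine block, proteins quantified by TMT10plex mass spectrometry in mild NP-40 versus SDS extracts, three biological replicates.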
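Wherever thermal stability score vs G1/S (z-score of summed log2 fold changes over temperatures) is given: synchronized HeLa Kyoto cells, proteins quantified by TMT10plex mass spectrometry, three biological replicates, mitosis taken 0.5 h after nocodazole release, G1/S directly after double thymidine block.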

Take “MGLTKQYLRYVASAVFGVIGSQKGNIVFVTLRGEKGRYVAVPACEHVFIWDLRKGEKILILQGLKQEVTCLCPSPDGLHLAVGYEDGSIRIFSLLSGEGNVTFNGHKAAITTLKYDQLGGRLASGSKDTDIIVWDVINESGLYRLKGHKDAITQALFLREKNLLVTSGKDTMVKWWDLDTQHCFKTMVGHRTEVWGLVLLSEEKRLITGASDSELRVWDIAYLQEIEDPEEPDPKKIKGSSPGIQDTLEAEDGAFETDEAPEDRILSCRKAGSIMREGRDRVVNLAVDKTGRILACHGTDSVLELFCILSKKEIQKKMDKKMKKARKKAKLHSSKGEEEDPEVNVEMSLQDEIQRVTNIKTSAKIKSFDLIHSPHGELKAVFLLQNNLVELYSLNPSLPTPQPVRTSRITIGGHRSDVRTLSFSSDNIAVLSAAADSIKIWNRSTLQCIRTMTCEYALCSFFVPGDRQVVIGTKTGKLQLYDLASGNLLETIDAHDGALWSMSLSPDQRGFVTGGADKSVKFWDFELVKDENSTQKRLSVKQTRTLQLDEDVLCVSYSPNQKLLAVSLLDCTVKIFYVDTLKFFLSLYGHKLPVICMDISHDGALIATGSADRNVKIWGLDFGDCHKSLFAHDDSVMYLQFVPKSHLFFTAGKDHKIKQWDADKFEHIQTLEGHHQEIWCLAVSPSGDYVVSSSHDKSLRLWERTREPLILEEEREMEREAEYEESVAKEDQPAVPGETQGDSYFTGKKTIETVKAAERIMEAIELYREETAKMKEHKAICKAAGKEVPLPSNPILMAYGSISPSAYVLEIFKGIKSSELEESLLVLPFSYVPDILKLFNEFIQLGSDVELICRCLFFLLRIHFGQITSNQMLVPVIEKLRETTISKVSQVRDVIGFNMAGLDYLKRECEAKSEVMFFADATSHLEEKKRKRKKREKLILTLT [WDR3]”: the thermal stability score in data set [1] (setting [5]) is 2.25; in data set [1] (cell cycle stage: mitosis), 3.44. Further, in data set [2], the “solubility in G1/S (log2)” value was -1.64. Further, the results for the melting temperature in data set [3] (cell cycle stage: G1/S) and in data set [3] (cell cycle stage: mitosis) were 50.2 °C and 50.9 °C, respectively. Also, the “solubility change mitosis (log2)” value in data set [4] is 0.614.

Consider “MANVGLQFQASAGDSDPQSRPLLLLGQLHHLHRVPWSHVRGKLQPRVTEELWQAALSTLNPNPTDSCPLYLNYATVAALPCRVSRHNSPSAAHFITRLVRTCLPPGAHRCIVMVCEQPEVFASACALARAFPLFTHRSGASRRLEKKTVTVEFFLVGQDNGPVEVSTLQCLANATDGVRLAARIVDTPCNEMNTDTFLEEINKVGKELGIIPTIIRDEELKTRGFGGIYGVGKAALHPPALAVLSHTPDGATQTIAWVGKGIVYDTGGLSIKGKTTMPGMKRDCGGAAAVLGAFRAAIKQGFKDNLHAVFCLAENSVGPNATRPDDIHLLYSGKTVEINNTDAEGRLVLADGVSYACKDLGADIILDMATLTGAQGIATGKYHAAVLTNSAEWEAACVKAGRKCGDLVHPLVYCPELHFSEFTSAVADMKNSVADRDNSPSSCAGLFIASHIGFDWPGVWVHLDIAAPVHAGERATGFGVALLLALFGRASEDPLLNLVSPLGCEVDVEEGDLGRDSKRRRLV [NPEPL1]”, for which the thermal stability score in data set [1] (setting [5]) was -4.2; in data set [1] (cell cycle stage: mitosis), -3.53. Besides, in data set [2], the “solubility in G1/S (log2)” value is 0.106. Moreover, the melting temperature in data set [3] (cell cycle stage: G1/S) amounted to 58.3 °C; in data set [3] (cell cycle stage: mitosis), 58.8 °C. In addition, in data set [4], the “solubility change mitosis (log2)” value was -0.0373.

For “MSRRLLPRAEKRRRRLEQRQQPDEQRRRSGAMVKMAAAGGGGGGGRYYGGGSEGGRAPKRLKTDNAGDQHGGGGGGGGGAGAAGGGGGGENYDDPHKTPASPVVHIRGLIDGVVEADLVEALQEFGPISYVVVMPKKRQALVEFEDVLGACNAVNYAADNQIYIAGHPAFVNYSTSQKISRPGDSDDSRSVNSVLLFTILNPIYSITTDVLYTICNPCGPVQRIVIFRKNGVQAMVEFDSVQSAQRAKASLNGADIYSGCCTLKIEYAKPTRLNVFKNDQDTWDYTNPNLSGQGDPGSNPNKRQRQPPLLGDHPAEYGGPHGGYHSHYHDEGYGPPPPHYEGRRMGPPVGGHRRGPSRYGPQYGHPPPPPPPPEYGPHADSPVLMVYGLDQSKMNCDRVFNVFCLYGNVEKVKFMKSKPGAAMVEMADGYAVDRAITHLNNNFMFGQKLNVCVSKQPAIMPGQSYGLEDGSCSYKDFSESRNNRFSTPEQAAKNRIQHPSNVLHFFNAPLEVTEENFFEICDELGVKRPSSVKVFSGKSERSSSGLLEWESKSDALETLGFLNHYQMKNPNGPYPYTLKLCFSTAQHAS [HNRNPL]”, the thermal stability score amounted to 5.28 in data set [1] (setting [5]) and 10.5 in data set [1] (cell cycle stage: mitosis). The “solubility in G1/S (log2)” value in data set [2] is -0.26. Besides, the values for the melting temperature in data set [3] (cell cycle stage: G1/S) and in data set [3] (cell cycle stage: mitosis) were 46.4 °C and 48.1 °C, respectively. Moreover, the “solubility change mitosis (log2)” value in data set [4] turned out to be 0.228.

Take “MKLKEVDRTAMQAWSPAQNHPIYLATGTSAQQLDATFSTNASLEIFELDLSDPSLDMKSCATFSSSHRYHKLIWGPYKMDSKGDVSGVLIAGGENGNIILYDPSKIIAGDKEVVIAQNDKHTGPVRALDVNIFQTNLVASGANESEIYIWDLNNFATPMTPGAKTQPPEDISCIAWNRQVQHILASASPSGRATVWDLRKNEPIIKVSDHSNRMHCSGLAWHPDVATQMVLASEDDRLPVIQMWDLRFASSPLRVLENHARGILAIAWSMADPELLLSCGKDAKILCSNPNTGEVLYELPTNTQWCFDIQWCPRNPAVLSAASFDGRISVYSIMGGSTDGLRQKQVDKLSSSFGNLDPFGTGQPLPPLQIPQQTAQHSIVLPLKKPPKWIRRPVGASFSFGGKLVTFENVRMPSHQGAEQQQQQHHVFISQVVTEKEFLSRSDQLQQAVQSQGFINYCQKKIDASQTEFEKNVWSFLKVNFEDDSRGKYLELLGYRKEDLGKKIALALNKVDGANVALKDSDQVAQSDGEESPAAEEQLLGEHIKEEKEESEFLPSSGGTFNISVSGDIDGLITQALLTGNFESAVDLCLHDNRMADAIILAIAGGQELLARTQKKYFAKSQSKITRLITAVVMKNWKEIVESCDLKNWREALAAVLTYAKPDEFSALCDLLGTRLENEGDSLLQTQACLCYICAGNVEKLVACWTKAQDGSHPLSLQDLIEKVVILRKAVQLTQAMDTSTVGVLLAAKMSQYANLLAAQGSIAAALAFLPDNTNQPNIMQLRDRLCRAQGEPVAGHESPKIPYEKQQLPKGRPGPVAGHHQMPRVQTQQYYPHGENPPPPGFIMHGNVNPNAAGQLPTSPGHMHTQVPPYPQPQPYQPAQPYPFGTGGSAMYRPQQPVAPPTSNAYPNTPYISSASSYTGQSQLYAAQHQASSPTSSPATSFPPPPSSGASFQHGGPGAPPSSSAYALPPGTTGTLPAASELPASQRTGPQNGWNDPPALNRVPKKKKMPENFMPPVPITSPIMNPLGDPQSQMLQQQPSAPVPLSSQSSFPQPHLPGGQPFHGVQQPLGQTGMPPSFSKPNIEGAPGAPIGNTFQHVQSLPTKKITKKPIPDEHLILKTTFEDLIQRCLSSATDPQTKRKLDDASKRLEFLYDKLREQTLSPTITSGLHNIARSIETRNYSEGLTMHTHIVSTSNFSETSAFMPVLKVVLTQANKLGV [SEC31A]”: the thermal stability score in data set [1] (setting [5]) was 1.55; in data set [1] (cell cycle stage: mitosis), 4.43. Further, the “solubility in G1/S (log2)” value in data set [2] was found to be 0.0843. The melting temperature in data set [3] (cell cycle stage: G1/S) came out at 48.9 °C; in data set [3] (cell cycle stage: mitosis), 50 °C. Moreover, the “solubility change mitosis (log2)” value in data set [4] was -0.144.
